Source: US20200299408A1 (Genentech, published 2020)
Where “and” joins values, the source holds several entries; their conditions need not be identical. Equal entries are not always repeated.

T1: single chain human CD3ε-26mer-CD3γ (CD3εγ) (human)
T1 construct: also called human CD3εγ
T1 chain: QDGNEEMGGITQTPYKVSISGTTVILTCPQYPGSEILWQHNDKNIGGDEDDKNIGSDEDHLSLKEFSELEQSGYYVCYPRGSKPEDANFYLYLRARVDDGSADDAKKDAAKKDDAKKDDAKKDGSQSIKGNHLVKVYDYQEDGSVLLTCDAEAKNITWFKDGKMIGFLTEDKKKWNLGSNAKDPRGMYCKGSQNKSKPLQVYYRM

B1: hu38E4.v1 H3 mutant F100bA (Fab, V domains shown)
VH: EVQLVQSGAEVKKPGASVKVSCKASGFTFTSYYIHWVRQAPGQGLEWIGWIYPENDNTKYNEKFKDRVTITADTSTSTAYLELSSLRSEDTAVYYCARDGYSRYYADYWGQGTLVTVSS
VL: DIVMTQSPDSLAVSLGERATINCKSSQSLLNSRTRKNYLAWYQQKPGQSPKLLIYWTSTRKSGVPDRFSGSGSGTDFTLTISSLQAEDVAVYYCKQSFILRTFGQGTKVEIK
notes: copies: 1 + 1
B2: 38E4v3 CHO (bispecific antibody)
anti-CD20 arm heavy chain: EVQLVESGGGLVQPGGSLRLSCAASGYTFTSYNMHWVRQAPGKGLEWVGAIYPGNGDTSYNQKFKGRFTISVDKSKNTLYLQMNSLRAEDTAVYYCARVVYYSNSYWYFDVWGQGTLVTVSS
anti-CD20 arm light chain: DIQMTQSPSSLSASVGDRVTITCRASSSVSYMHWYQQKPGKAPKPLIYAPSNLASGVPSRFSGSGSGTDFTLTISSLQPEDFATYYCQQWSFNPPTFGQGTKVEIK
anti-CD3 arm heavy chain: EVQLVQSGAEVKKPGASVKVSCKASGFTFTSYYIHWVRQAPGQGLEWIGWIYPENDNTKYNEKFKDRVTITADTSTSTAYLELSSLRSEDTAVYYCARDGYSRYYFDYWGQGTLVTVSS
anti-CD3 arm light chain: DIVMTQSPDSLAVSLGERATINCKSSQSLLNSRTRKNYLAWYQQKPGQSPKLLIYWTSTRKSGVPDRFSGSGSGTDFTLTISSLQAEDVAVYYCKQSFALRTFGQGTKVEIK
notes: also called CD3/CD20 TDB 2H7v16/38E4v3
B3: hu38E4.v1 H3 mutant R99A (Fab, V domains shown)
VH: EVQLVQSGAEVKKPGASVKVSCKASGFTFTSYYIHWVRQAPGQGLEWIGWIYPENDNTKYNEKFKDRVTITADTSTSTAYLELSSLRSEDTAVYYCARDGYSAYYFDYWGQGTLVTVSS
VL: DIVMTQSPDSLAVSLGERATINCKSSQSLLNSRTRKNYLAWYQQKPGQSPKLLIYWTSTRKSGVPDRFSGSGSGTDFTLTISSLQAEDVAVYYCKQSFILRTFGQGTKVEIK
notes: copies: 1 + 1
B4: 38E4v6 CHO (bispecific antibody)
anti-CD20 arm heavy chain: EVQLVESGGGLVQPGGSLRLSCAASGYTFTSYNMHWVRQAPGKGLEWVGAIYPGNGDTSYNQKFKGRFTISVDKSKNTLYLQMNSLRAEDTAVYYCARVVYYSNSYWYFDVWGQGTLVTVSS
anti-CD20 arm light chain: DIQMTQSPSSLSASVGDRVTITCRASSSVSYMHWYQQKPGKAPKPLIYAPSNLASGVPSRFSGSGSGTDFTLTISSLQPEDFATYYCQQWSFNPPTFGQGTKVEIK
anti-CD3 arm heavy chain: EVQLVQSGAEVKKPGASVKVSCKASGFTFTSYYIHWVRQAPGQGLEWIGWIYPENDNTKYNEKFKDRVTITADTSTSTAYLELSSLRSEDTAVYYCARTGYSRYYFDYWGQGTLVTVSS
anti-CD3 arm light chain: DIVMTQSPDSLAVSLGERATINCKSSQSLLNSRTRKNYLAWYQQKPGQSPKLLIYWTSTRKSGVPDRFSGSGSGTDFTLTISSLQAEDVAVYYCKQSFILRTFGQGTKVEIK
notes: also called CD3/CD20 TDB 2H7v16/38E4v6
B5: 38E4v2 CHO (bispecific antibody)
anti-CD20 arm heavy chain: EVQLVESGGGLVQPGGSLRLSCAASGYTFTSYNMHWVRQAPGKGLEWVGAIYPGNGDTSYNQKFKGRFTISVDKSKNTLYLQMNSLRAEDTAVYYCARVVYYSNSYWYFDVWGQGTLVTVSS
anti-CD20 arm light chain: DIQMTQSPSSLSASVGDRVTITCRASSSVSYMHWYQQKPGKAPKPLIYAPSNLASGVPSRFSGSGSGTDFTLTISSLQPEDFATYYCQQWSFNPPTFGQGTKVEIK
anti-CD3 arm heavy chain: EVQLVQSGAEVKKPGASVKVSCKASGFTFTSYYIHWVRQAPGQGLEWIGWIYPENDNTKYNEKFKDRVTITADTSTSTAYLELSSLRSEDTAVYYCARDAYSRYYFDYWGQGTLVTVSS
anti-CD3 arm light chain: DIVMTQSPDSLAVSLGERATINCKSSQSLLNSRTRKNYLAWYQQKPGQSPKLLIYWTSTRKSGVPDRFSGSGSGTDFTLTISSLQAEDVAVYYCKQSFILRTFGQGTKVEIK
notes: also called CD3/CD20 TDB 2H7v16/38E4v2
B6: 38E4v4 CHO (bispecific antibody)
anti-CD20 arm heavy chain: EVQLVESGGGLVQPGGSLRLSCAASGYTFTSYNMHWVRQAPGKGLEWVGAIYPGNGDTSYNQKFKGRFTISVDKSKNTLYLQMNSLRAEDTAVYYCARVVYYSNSYWYFDVWGQGTLVTVSS
anti-CD20 arm light chain: DIQMTQSPSSLSASVGDRVTITCRASSSVSYMHWYQQKPGKAPKPLIYAPSNLASGVPSRFSGSGSGTDFTLTISSLQPEDFATYYCQQWSFNPPTFGQGTKVEIK
anti-CD3 arm heavy chain: EVQLVQSGAEVKKPGASVKVSCKASGFTFTSYYIHWVRQAPGQGLEWIGWIYPENDNTKYNEKFKDRVTITADTSTSTAYLELSSLRSEDTAVYYCARDGYSRYYFDYWGQGTLVTVSS
anti-CD3 arm light chain: DIVMTQSPDSLAVSLGERATINCKSSQSLLNSRTRKNYLAWYQQKPGQSPKLLIYWTSTRKSGVPDRFSGSGSGTDFTLTISSLQAEDVAVYYCKASFILRTFGQGTKVEIK
notes: also called CD3/CD20 TDB 2H7v16/38E4v4
B7: hu38E4.v1 H3 mutant Y97A (Fab, V domains shown)
VH: EVQLVQSGAEVKKPGASVKVSCKASGFTFTSYYIHWVRQAPGQGLEWIGWIYPENDNTKYNEKFKDRVTITADTSTSTAYLELSSLRSEDTAVYYCARDGASRYYFDYWGQGTLVTVSS
VL: DIVMTQSPDSLAVSLGERATINCKSSQSLLNSRTRKNYLAWYQQKPGQSPKLLIYWTSTRKSGVPDRFSGSGSGTDFTLTISSLQAEDVAVYYCKQSFILRTFGQGTKVEIK
notes: copies: 1 + 1
B8: 38E4v5 CHO (bispecific antibody)
anti-CD20 arm heavy chain: EVQLVESGGGLVQPGGSLRLSCAASGYTFTSYNMHWVRQAPGKGLEWVGAIYPGNGDTSYNQKFKGRFTISVDKSKNTLYLQMNSLRAEDTAVYYCARVVYYSNSYWYFDVWGQGTLVTVSS
anti-CD20 arm light chain: DIQMTQSPSSLSASVGDRVTITCRASSSVSYMHWYQQKPGKAPKPLIYAPSNLASGVPSRFSGSGSGTDFTLTISSLQPEDFATYYCQQWSFNPPTFGQGTKVEIK
anti-CD3 arm heavy chain: EVQLVQSGAEVKKPGASVKVSCKASGFTFTSYYIHWVRQAPGQGLEWIGWIYPENDNTKYNEKFKDRVTITADTSTSTAYLELSSLRSEDTAVYYCARDGYSRYYFDYWGQGTLVTVSS
anti-CD3 arm light chain: DIVMTQSPDSLAVSLGERATINCKSSQSLLNSRTRKNYLAWYQQKPGQSPKLLIYWTSTRKSGVPDRFSGSGSGTDFTLTISSLQAEDVAVYYCKQSAILRTFGQGTKVEIK
notes: also called CD3/CD20 TDB 2H7v16/38E4v5
B9: 38E4v8 CHO (bispecific antibody)
anti-CD20 arm heavy chain: EVQLVESGGGLVQPGGSLRLSCAASGYTFTSYNMHWVRQAPGKGLEWVGAIYPGNGDTSYNQKFKGRFTISVDKSKNTLYLQMNSLRAEDTAVYYCARVVYYSNSYWYFDVWGQGTLVTVSS
anti-CD20 arm light chain: DIQMTQSPSSLSASVGDRVTITCRASSSVSYMHWYQQKPGKAPKPLIYAPSNLASGVPSRFSGSGSGTDFTLTISSLQPEDFATYYCQQWSFNPPTFGQGTKVEIK
anti-CD3 arm heavy chain: EVQLVQSGAEVKKPGASVKVSCKASGFTFTSYYIHWVRQAPGQGLEWIGWIYPENDNTKYNEKFKDRVTITADTSTSTAYLELSSLRSEDTAVYYCARSGYSRYYFDYWGQGTLVTVSS
anti-CD3 arm light chain: DIVMTQSPDSLAVSLGERATINCKSSQSLLNSRTRKNYLAWYQQKPGQSPKLLIYWTSTRKSGVPDRFSGSGSGTDFTLTISSLQAEDVAVYYCKQSFILRTFGQGTKVEIK
notes: also called CD3/CD20 TDB 2H7v16/38E4v8
B10: 38E4v7 CHO (bispecific antibody)
anti-CD20 arm heavy chain: EVQLVESGGGLVQPGGSLRLSCAASGYTFTSYNMHWVRQAPGKGLEWVGAIYPGNGDTSYNQKFKGRFTISVDKSKNTLYLQMNSLRAEDTAVYYCARVVYYSNSYWYFDVWGQGTLVTVSS
anti-CD20 arm light chain: DIQMTQSPSSLSASVGDRVTITCRASSSVSYMHWYQQKPGKAPKPLIYAPSNLASGVPSRFSGSGSGTDFTLTISSLQPEDFATYYCQQWSFNPPTFGQGTKVEIK
anti-CD3 arm heavy chain: EVQLVQSGAEVKKPGASVKVSCKASGFTFTSYYIHWVRQAPGQGLEWIGWIYPENDNTKYNEKFKDRVTITADTSTSTAYLELSSLRSEDTAVYYCARDGYSRYAFDYWGQGTLVTVSS
anti-CD3 arm light chain: DIVMTQSPDSLAVSLGERATINCKSSQSLLNSRTRKNYLAWYQQKPGQSPKLLIYWTSTRKSGVPDRFSGSGSGTDFTLTISSLQAEDVAVYYCKQSFILRTFGQGTKVEIK
notes: also called CD3/CD20 TDB 2H7v16/38E4v7

Experiments:
[1] = molecular target: T1, single chain human CD3ε-26mer-CD3γ …; experiment: Biacore single cycle kinetics: Fab captured by anti-human Fab, human CD3εγ injected (3-250 nM)
From the text: In addition, position 95 in HVR-H3 was also mutated to serine, threonine, or glutamate. Variants with these single point mutations were expressed as Fabs in HEK293 cells and initially screened with a single cycle kinetics method on a Biacore T100. Selected variants were also scaled up and purified for a conventional multi-cycle kinetics method. For single cycle kinetics, Biacore Series S CM5 sensor chips were immobilized with anti-human Fab antibodies (Human Fab capture kit, GE Healthcare). […] For conventional multi-cycle kinetics, human CD3εγ, cyno CD3εγ, or a 27-mer peptide were immobilized on Biacore Series S CM5 sensor chip using the amine coupling kit from Biacore. Serial 3-fold dilutions of each Fab variant were injected at a flow rate of 30 μl/min. Each sample was analyzed with a protocol of 3-minute association and 3-minute dissociation. In both methods, the Biacore chips were regenerated using 10 mM Glycine (pH 1.7). Binding response was corrected by blank subtraction and a 1:1Languir model of simultaneous fitting of kₒₙ and koff was used for kinetics analysis.

[2] = molecular target: T1, single chain human CD3ε-26mer-CD3γ …; experiment: Biacore, human CD3εγ on chip, TDB in flow through
Description: (§1) Binding affinities for the each of the CD3/CD20 TDBs were tested by Biacore or FACS analysis, as described above for the anti-CD3 antibodies. Briefly, for Biacore binding assays, human CD3εγ was immobilized on Biacore Series S CM5 sensor chip using the amine coupling kit from Biacore and CD3/CD20 TDBs or Fab variants thereof were in the flow through. For FACS binding assays, either Bjab cells (for B cell antigens) or Jurkat cells (for CD3 antigen) were incubated with various concentrations of TDB antibodies at 4° C. for 30 minutes, then cells were washed and incubated with 2nd antibody (anti-huIgG-PE; BD Bioscience) for another 15 minutes, before cells were washed again and ready for FACS analysis.

human CD3 on T cells = molecular target: T2, human CD3 on T cells (human, UniProt P07766 22-207); experiment: FACS on Jurkat cells (CD3); EC50 table for the curves of FIGS. 21A-21B; source CHO (N297G)
T2 construct: whole, on cells; On cells CD3ε stands in the CD3/TCR complex; also called CD3 antigen; CD3ε
Description: as §1

| Binder | binding result [1] | Kd [2] | koff [2] | kon [2] | EC50 (human CD3 on T cells) |
| --- | --- | --- | --- | --- | --- |
| B1 | no binding (tested: 250 nM CD3εγ (p-1386; not on the sheet)) | – | – | – | – |
| B2 | – | 3.21 nM and 3.2 nM | 0.016 s⁻¹ | 4.98e+06 M⁻¹ s⁻¹ | 0.29 µg/mL and ~1.9 nM |
| B3 | no binding (tested: 250 nM CD3εγ (p-1386; not on the sheet)) | – | – | – | – |
| B4 | – | 37600 nM | 0.878 s⁻¹ | 23400 M⁻¹ s⁻¹ | 5.56 µg/mL and ~36 nM |
| B5 | – | 2.43 nM and 2.4 nM | 0.00513 s⁻¹ | 2.11e+06 M⁻¹ s⁻¹ | 0.52 µg/mL and ~3.4 nM |
| B6 | – | 137 nM and 136 nM | 0.0984 s⁻¹ | 721000 M⁻¹ s⁻¹ | 3.51 µg/mL and ~23 nM |
| B7 | no binding (tested: 250 nM CD3εγ (p-1386; not on the sheet)) | – | – | – | – |
| B8 | – | 16 nM | 0.0515 s⁻¹ | 3.22e+06 M⁻¹ s⁻¹ | 4.11 µg/mL and ~27 nM |
| B9 | – | 3930 nM | 0.0443 s⁻¹ | 11300 M⁻¹ s⁻¹ | 7.23 µg/mL and ~47 nM |
| B10 | – | 254 nM | 0.29 s⁻¹ | 1.14e+06 M⁻¹ s⁻¹ | 22.6 µg/mL and ~147 nM |
